Data published in the RNAGym collection of RNA variant scans (doi:10.1073/pnas.2313332121).

B1: TPR t1 (parent)
chain: GACCAAUCUGCCCUCAGAGCUCGAGAACAUCUUCGGAUGCAGAGGAGGCAGGCUUCGGUGGCGCGAUAGCGCCAACGUCCUCAACCUCCAAUGCAUCCCACCACAUGAUGAUGCCUGAAGAGCCUUGGUUUUUUG

Variants of: B1
Experiment: polymerase ribozyme fitness, log enrichment relative to wild type (log ratio); higher = more active; in vitro selection for triplet polymerase activity
Outline: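 A single round of triplicate in vitro selection, including frozen incubation at −7 °C, was applied to PCR-built, transcribed mutant libraries of each subunit of a heterodimeric triplet polymerase ribozyme. Illumina sequencing of input and output libraries retained genotypes with ≥10 input reads and ≥1 read per output. Fitness is the base-2 logarithm of genotype enrichment divided by wild-type enrichment, from inverse-variance-weighted replicate averages.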

Variant | polymerase ribozyme fitness (log ratio)
GACCAAUCUGCCCUCUGAGCUCGAGAACAUCUUCGGAUGCAGAGGAGGCAGGCUUCGGUGGCGCGAUAUCGCCAACGUCGUCAACCUCCCAUGCAUCCCACCACAUGAUGAUGCCUGAAGAGCCUUGGUUUUUUG [A16U G69U C80G A90C] | -6.49
GACCAAUCUGCCAUCAGAGCUCGAGAACAUCUUCGGAAGCAGAGGUGGCAGGCUUCGGUGGCGCGAUAGGGCCAACGUCCUCAACCUCCAAUGCAUCCCACCACAUGAUGAUGCCUGAAGUGCCUUGGUUUUUUG [C13A U38A A46U C70G A121U] | -5.9
GACCAAUCUGCCUUCAGAGCUCGAGAACAUCUUCGGAUGCAGAGGAGGCAGGCUUCGGUGGCGCGAUAGCGCCAACGCCCUCAACCUCCAAGGCAUCCCACCACAAGAUGAUGCCUGAAGAGCCUUGGUUUUUUG [C13U U78C U92G U106A] | -2.62
GACCAAUCUCCCCUCAGAGCUCGAGAACAUCUUCGGAUGCAGAGGAGGCAGGCUUCGGUGGCGCGAUAGCGCCAACGUCCUCAACCUCCAAUGCAUCCCACCACAUGAUGAUGCCUGAACAGCCUUGGUUUUUUG [G10C G120C] | 1.04
GACCAAUCUGCCCUCAGAGCUCGAGAACAUCUUCGGAUGCAGAGGAGGCAGGCUUCUGUGCCGCGAUAGCGCCAACGUCCUCAACCUCCAAUGCAUCCCACCACAUGAUGAUGCCUGAAGAGCCUUGGUUUUUUA [G57U G61C G135A] | -2.69
GACCAAUCUGCCCUCAGAGCUCGAGAAGAUCUUCGGUUGCAUAGGAGGCAGGCUUAGGUGGCGCGAUAGCGCCAACGUCCUCAACCUCCAAUGCAUCCCACCACAAGAUGAUAGCUGAAGAGCCUUGGUUUUUUG [C28G A37U G42U C56A U106A G113A C114G] | -5.89
GACCAAUCGGCCCUCAGAGCUAGAGAACAUCUUAGGAUGCAGAGGAGGCAGGCUUCGGUGGCGCGAUAGCGCCAACGUCCUUAACCUCCAAUGCAUCCCACCACAUGAUGAUGCCUGAAGAGCCUUGGUCUUUUG [U9G C22A C34A C82U U130C] | -6.39
GACCAAUCUGCUCCGAGAGCUCGAGAACAUCUUCGGAUGCCGAGGAGGCAGGCUUCGGUGGCGCGAUAGCGCCAACGUCCUCAACCUCCAAUGCAUCCCACCACAUGAUGAAGCCUGAAGAGCCUUGGUUUUUUG [C12U U14C C15G A41C U112A] | -2.25
GACCAAUCUGCCCUCAGAGCUCGAGAACAUCUUCGGAUGCAGAGGAGGCAGGCUUCGGUGACGCGAUAGCGCCAACGCCCUCAACCUCCAAUGCAUCCCACCAAAUGAUGAUGCCUGAAGAGCCUUGGUUUUUUG [G61A U78C C104A] | -1.61
GACCACUCUGCCUUCAGAGCUCGAGAACAUCUACGGAUGCAGAGUAGGCACGCUUCGGUGGCGCGAUUGCGCCAACGUCCUCAACCUCCAAUGCAUCCCACCACAUGAUGAUGCCUGAAGUUCCUUGGUUUUUUG [A6C C13U U33A G45U G51C A68U A121U G122U] | -6.98
GACCAAUCUGCCCUCAGCGAUCGAGAACAUCUUCGGAUGCAGAGGAGGCAGGCUCCAGUGGCACGAUAGCGCCAACGUCCUCAACCUCCAAUGCAUCCCACCACAUGAUGAUGCCUGAAGAGCCUUGGUUUUUUG [A18C C20A U55C G57A G63A] | -4.91
GACCAAUCUGCCCUCAGAGGUCGAGAACAUCUUCGGAUGCAGAGGAGGCAGCCUUCGGUGGCGCGAUAGCGCCAACGUCCUCAACCUCCAAUGCGUCCCACAACAUGAUGAUGCUUGAAGAGCCUUGGUUUUUUG [C20G G52C A95G C102A C115U] | -6.79
GACCAAUCUGCCCUCCGAGCUCGAGAACAUCUUCGGAUGCAGACGAGGCAGGCUUCGGUGGCGCGAUAGCGCAAACGUCCUCAACUUCCAAUGCAUCCCACCACAUGAUGAUGCCUGAAUAGCCUUGGUUUUUUG [A16C G44C C73A C86U G120U] | -2.98
GACCAAUCUGCCCUCAGAGCUCGAGAACAUCUUCGGAUGCAGAGGAGGAAGGCUUCGGUGGCACGAUAGAGCCAACGUCCUCAACCUCCAAUGCAUCCCACCACAUGACGAUGCCUGAAGAGCCUUGGUUUUUUG [C49A G63A C70A U109C] | -7.14
GACCAAUCUGCCCUCAGAGCUCGAGAACAUCUUCGGUUGCAGAGGAGGCAGGCUUCGGUGGCGCGAUAGCGCCAACGUCCUCAACCUCCAAUGCAUCCCACCACAUGAUAAUGCCUGAAGAGCCUUGGUUUUUUG [A37U G110A] | -1.04
GACCAAUCUGCCCUCAGAGCUCGAGAACAUCUUCGGAUGCACAGGAGGCAGGCUUCGGUGGCGCGAUAGCGCCAACGUCCUCAACCUCUAAUGCAUCCCAGCACAUGAUGAUGCCUGAAGAGCCUUGGUUUUUUG [G42C C89U C101G] | -2.74
GACCAAUCUGCGCUCAGAGCUCGAGAAUAUCUUCGGAUGCAGAGGAGGCAGGCUUCGGUGGCGCGAUAGCGCCAACGUCCUCAACCUCCAAUGCAUCCCACCACAUGAUGAUGCCUGAAGAGCUUUGGUUUUUUG [C12G C28U C124U] | -0.261
GACCAAUCUGCCCUCAGAGCUCGAGAACAUCUUCGGAUGCAGAGCAGGCAGGCUUCGGUGACGCGAUAGCGCCAACGUCCUCAACCUCCAAUGCAUCCCACCACAUGAUGAUGCCUGAAGAGCCUUGGAUUUUUG [G45C G61A U129A] | -0.659
GACCAAUCUGCCCUCAGAACUCGAGAACAUCUUCGGAUGCAGAGGAGGCAGGCUUCGGUGACGCGAUAGCGCCAACGUCCUCAACCUCCAAUGCAUCCCACCACAUGAUGAUGCCUGAAGAGCCUUGGUUUUUUG [G19A G61A] | -2.53
GACCAAUCUGCCCUCAGAGCUCGAGAACAUCUUCGGAUGCAGAGGAGGCAGGCUUAGGUGGCGCGAUAGCGCCAACGUCCUAAACCUUCAAUGCAUCCCACCACAUGAUGAUGCCUGAAGAGCCUUGGUUUUUUG [C56A C82A C88U] | -0.846
GACCAAUCUGCCCUCAGAGGUCGAGAACAUCUUCGGAUGCAGAGGAGGCAGGCUUCGGUGGCGCGAUAGCGCCAACGUCCUCAACCUCCACUGCAUCCCACCACAUGAUGAUGUCUGAAGAGCCUUGGUUUUUUG [C20G A91C C114U] | -2.15

Variant | polymerase ribozyme fitness (log ratio)
GACCAAUCUGCCCUCAGAGCUCGAGAACAUCUUCGGAUGCAGAGGAGGCAGACUUCAGUGGCGCGAUAGCGCCAACGUCCUCAACCUCCAAUGCAUCCCACCACAUGAUGAUGCCUGAAGAGCCUUGGUUUUUUG [G52A G57A] | -1.07
GACCAAUCUGCCCUCAGAGCUCGAGAACAUCUUCGGAUGCAGAGGAGGCAGGCUUCGGUGGCGCGAUAGCGCAAACGUCCUCAACCUCUAAUGCAUCCCACCACAUGAUCAUGCCUGAAGAGCCUUGGUUUUUUG [C73A C89U G110C] | -5.15
GACCAAUCUGCCCUCAGAGCUCGAUAACAUCUUCGGAUGCAGCGGAGGCAGGCUUCGGUGGCGCGAUAGCGCCAACGGCCUCAACCUCCAAUGCAUCCCACCACAUGAUGAUGCCUGAAGGGCCUUGGUUUUUUG [G25U A43C U78G A121G] | -5.96
GACCAAUCUGCCCUCAGAGCUCGAGAACAUCUUCGGAUGCAGAGGAGGCGGGCUUCGGUGGCGCGAUAGCGCCAAUGUCCUCAACCUCCAAUGCAUCCCACCACAUGAUGAUGCCUGAAGAGCCUUGGUUUUUUG [A50G C76U] | -0.383
GACCAACGUGCCCUCAGAGCUCGAGAACAUCUUCGGAUGCAGAGGAGGCAGGCUUCGGUGGCGGGAUAGCGCCAACGUCCUCAAACUCCAAUGCAUCCCACCACAUGAUGAGGCCUGAAGAGCCUUGGUUUUUUG [U7C C8G C64G C85A U112G] | -6.03
GACCAAUCUGCCCUCAGAGCUCGAGAACAUCUUCGGAUGCAGAGGAGGCAGGCUUCGGUGCCGCGUUAGCGCCAACGUCCUCAACCUCCAAUGCAUCCCACCACAUGAUGAUGCCUGAAGGGCCUUGGUUUUUUG [G61C A66U A121G] | -0.122
GACCAGUCUGCCCUCAGAGCUCGAGAACAUCUUCGGAUGCAGAGGAGGCAGGCUUGGGUGGCGCGAUAGCGCCAACGUCCUCAACCUCCAAUGCAUCCCACCUCAUGAUGAUGCCUGAAGAGCCUUGGUUUUUUG [A6G C56G A103U] | -4.63
GACCAAUCUGCCCUCAGAGAUCGAGGACAUCUACGGAUGCAGAGGAGGCAGGCUUCGGUGGCGCGAUAGCGCCAACGUCCUCAACCUCCAAUGCAUCCCACCACAUGAUGAUGCCUGAAGAGCCUUGGUUUUUUG [C20A A26G U33A] | -5.24
GACCAAUCUGCCCUCAGAGCUCGAGAACAUCUUCGGAUGCAGAGGAUGCAGGCUUCGGUGGCGAGAUAGCGCCAACGUCGUCAACCGACAAUGCAUCCCACCACAUGAUGAAGCCUGAAGAGCCUUGGUUUUUUG [G47U C64A C80G U87G C88A U112A] | -6.27
GACCAAUCUGCCCUCAGAGCUCGAGAACAUCUUCGGAUGCAGAGGAGGCAGGCUUCGGUGGCGCGAUAGCGCCAACGUCCUCAACCUCCAAUGCAUCCCACCACAUGAUGAUGCGUGAGGAGCCUUGGUUUUUUG [C115G A119G] | 1.52
GACCAAUCUGCCCUCAGAGCUCGAGAACAUCUUCGGAUGUAGAGGAGGCAGGCUUCGGUGGCGCGAUAGCCCCAACGUCCUCAACCUCCAAUGCAUCCCACCACAUGAUGAUGCCUGAAGAGCCUUGGUUUUUUG [C40U G71C] | -1.58
GACCAAUCUGCCCUCAGAGCUCGAGAACAUCUUCGGAUGCAGAGGAGGCAGGCUUCGGUGACGCGAUAGCGCCAACGUCCUCAACCUCCAAUACAUCCCACCAUAUGAUGAUGCCUGAAGAGCCUUGGUUUUUUG [G61A G93A C104U] | 0.015
GACCAAUCUGCCCUCAGAGCUCGAGAACAUCUUCGGAUGCAGAGGAGGCAGGCUUCGGUGGCGCGAUAGCGCCAACGGCCUCAACCUCCAAUGCAUCCCACCACAUGAUGAUACCUGAAGAGCCUUGGUCUUUUG [U78G G113A U130C] | -1.64
GACCAAUCUGCCCCCAGAGCUCGAGAACAUCUUCGGAUGCAGAGGAGGCAGGCUUCGUUGGCGCGAUAGUUCCAACGUCCUCAACCUCCAAUGCAUCCCACCACAUGAUGAUGCCUGAAGAGCCUUGGUUUUUUG [U14C G58U C70U G71U] | -3.19
GACCAAUCUGGCCUCAGAGCUCGAGAACAUCUUCGGAUGAAGAGGAGGCAGGCUUCGGUGGCGCGAUAGCGUCAACGUCCUCAACCUCCAAUGCAUCCCAUCAUAUGAUGAUGCCUGAAGAGCCUUGGUUUUUUU [C11G C40A C72U C101U C104U G135U] | -0.627
GAUCAAUCUGCCCUCAUAGCUCGAGAACAUCUUCGGAUGCAGAGGAGGCAGGCUUCGGUGGCUCGAUAGCGCUAACGUCCUCAACCUCCAAUGCAUCCCACCACAUGAUGAUGCCUGAAGAGCCUUGGUUUUUUG [C3U G17U G63U C73U] | -4.23
GACCAAUCUGCCCUCAGAGCUGGAGAACAUCUUCGGAUGCAGAGGCGGCAGGCUUCGGUGGCGCGAUAGCGCCAACGUCCUCAACCUCCAAUGCAUCCCACCACAUGAUGAUGCCUGAAGAGCCUUGGUUUUUUG [C22G A46C] | -3.97
GACCAAUCUGCCCUCAGUGCUCGAGAACAUCUUCGGAUGCAGAGGAGGCAGGCUUCGGUGGUGCGAUAGCGCCAACGUCCUCAACAUCCAAUGCAUCCCACCACAUGAUGAUGUCUGAAGAGCCUUGGUUUUUUG [A18U C62U C86A C114U] | -5.98
GACCAAUCUGCCCUAAGAGCUCGAGAACAUCUUCGGAUGCAGAGGAGGCAGGCUUCGGUGGCGCGAUAGCGCCAACGUCCUCAACCUCCAAUGCAUCCCACCACAUGAUGAUGCCUGAAGAGCCUAGGUUUUUUG [C15A U126A] | -4.9
GACCAAUCUGCCCUCAGAACUCGAGAACAUCUUCGGAUGCUGAGGAGGCAGGAUUCGGUCGCGCGAUAGCGCCAACGUCCUCAACCUCCAAUGCAUCCCACCACAUGAUGAUGCCUGAAGUGCCUUGGUUUUUUG [G19A A41U C53A G60C A121U] | -5.24
GACCAAUCUGCCCUCAAAGCUCGAGAACAUCUUCGGAUGCAGAGGAGGCAGGCUUCGGUGGCGCGAUAGCGUCAACGUCCUCAACCUCCAAUGCAUCCCACCACAUGAUGAUGUCUGAAGAGCCUUGGUUUUUUG [G17A C72U C114U] | -5.33
